# Assay results reported in the nanobody polyreactivity screen of Harvey et al. (2022).
# Experiment: yeast display, Sf9 membrane polyspecificity reagent, FACS + sequencing; frameworks hold sequencing errors
# In short: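 Genes from sorted yeast were amplified by colony PCR, read by MiSeq 2 × 250 sequencing and filtered on CDR length. These cells carried a synthetic nanobody library in Saccharomyces cerevisiae BJ5465 and were sorted by FACS into low and high (top ~1%) gates on anti-HA and streptavidin fluorescence. Polyreactivity is labelled according to the gate of origin.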
row,Sequence,polyreactivity (PSR sort gate)
1,QVQLVESGGCLLQAGGSLRLSCAASGYIFERNAMGWYRQAPGKERELVAAITDDGDDTYYADSVKGRFTISRDNEKNTVYLQMNSLKPEDTAVYYCAKDLYYGDYYYWGQGTQVTVSS,low polyreactivity
2,QVQLVESGGCLVKAGCSLRLSCAASGRIFFVNAMGWYRPAPGKECELVAAISRGGSTNYADSVKGRFTISRDNAMNTVYLQMNILKPEDTEVYYCAAGYVRYPGVIDEYWGPGTQVTVSS,low polyreactivity
3,QVQLVESGGCLVQAGCSGRLSCAASGYTLTINVMGWDRQAPGKERELVAAITTSCASTNYADSVKGRFTISRDNAKNSVYLKMNSLKPEDTSVYYCAADYLSFVVVKLYGYWGQRTQVTVSS,low polyreactivity
4,QVQLVESGGCLVQAGCSLSLSCAASGITFRPYAMGWYRQAPGKERELVAAIRWDGGSTYYADSVKGRFTISRDNAKNTVYLQMNSMKPEDTAVDYCAAKRPTHVRKMDYWGQGTQVTVSS,high polyreactivity
5,QVQLVESGGCLVQAGGRLRLICAASGRTFFFNAMGWYRQAPGKERELVAAISRGGSRTFYADSVKGRFTISRDNEKNTVYLQMNSLKPEDNAVYYCNDVAQSGRYDYWGQGTQVTVSS,high polyreactivity
6,QVQLVESGGCLVQAGGRLRLSCAASGRIFRGYAMGWYRQAPGKERELVARITSGGRTYYADSVKGRFTISRDNAKNTVYLQMNSLKPEDTAVYYCAAPPSVRTRKAYYYWGQGTQVTVSS,high polyreactivity
7,QVQLVESGGCLVQAGGRLRLSCAASGYIFDRNAMGWYRQAPGTERELVAAITKRGGITYYADSVKGRFTISRDNAKFSGYLQMNSLKPEDTAVYYCNALARSSRYDYWGQGTQVTVSS,low polyreactivity
8,QVQLVESGGCLVQAGGSHRLSCAASGYIVWENAMGWYRPAPGKERELVAAITVTGGGTYYADSVKGRFTISRDNSKNPGYLHMNSLKPEDTAVYYCAPDEDNPWLWFYYWGQGTQVTVSS,low polyreactivity
9,QVQLVESGGCLVQAGGSHRLSCASSGRTFYRKAMGWYRQAPGKERELVAAISSGTSTNYADSVKGRFTISRDYAKNTVYLQMNSLKPEDTAVYYCAKERPRGAPAYYSRFYDYWGQGTQVTVSS,high polyreactivity
10,QVQLVESGGCLVQAGGSIRLSCAASGSIFKSNAMGWYRQAPGKERELVAAISNGGITNYADSVKVRFTISRDNAKNTDYLQMNSLKPEDTAVYYCNARNNYWWYCPGYDYWGQGTQLTVSS,low polyreactivity
11,QVQLVESGGCLVQAGGSLGLSCAASGFSFLEYAKGWYRQAPGKERELVAVISRRGGRTYYADSVKGRFTISRDNAKITVFLQMNSLNPEDTEVYYWNARISGCVWHYDYWGQGTQVTVSS,high polyreactivity
12,QVQLVESGGCLVQAGGSLPLSCAASGIIFAQYVMGWYIQATGKESELVAAIRTSGGRTYYADSVKGRFTISRDNSKNTVYLQMNSLKPEDTAVYYCAAYGKPTFRSVDYWGQGTQVTVSS,high polyreactivity
13,QVQLVESGGCLVQAGGSLRLICAASGIIFWGYFMGWYRQAPAKERELVAAISRGGRTYYADSVKGRFTISRDNAKNTVYLQMNSLKPEDTAVDYCAARWGRSYLPQPFQFEYDYWGQGTQVTVSS,high polyreactivity
14,QVQLVESGGCLVQAGGSLRLRGAASGRIFGYYAMGWYRQAPGKEWELVAAISRGGSTNYADSVKGRFTISRDNAKNTVYLQMNSLKPEDTAVYYCAAVQRTHPRYYYWGQGTQVTVSS,high polyreactivity
15,QVQLVESGGCLVQAGGSLRLSCAASGFIFRQYAMGWYRQAPGKERELVAAISTGGGRTYYADSVKGRFTISRDNAKNTVYLQMNSLKPEDTAVYYCAAGYPYSYRDYYYWGQGTQVTVSS,high polyreactivity
16,QVQLVESGGCLVQAGGSLRLSCAASGFIFRWYAMGWYRQAPGKERELVAAISLGGSTNYADSVKGRFTISRDNAKNTVYLQMNSLKPEDTAVYYCNARYVSYSGRYVIGQYVKYDYWGKGTQVTVSS,high polyreactivity
17,QVQLVESGGCLVQAGGSLRLSCAASGFIFWDYAMGWYRQAPGKERELVAAISDSGGDKYYADSVKGRFTISRDNAKNTVYLQMNSLKPEDTAVYYCAADVELWVFRGQQYDYWGQGTQVTVSS,low polyreactivity
18,QVQLVESGGCLVQAGGSLRLSCAASGFTFHDYAMGWYRQAPGKERELVAAITKSGGRTYYADSVKGRFTISRDNAQNTVYLQMNSLKPVDTAVYYRAAKSYWGQVTQVTVSS,high polyreactivity
19,QVQLVESGGCLVQAGGSLRLSCAASGFTFHNNVMGWYRQAPGKDRELVATISKSGGSTYYADSEKGRFTISRDNAKNTVYLQMNSLKPEDTAVYYCDRRYRYYGRYGYWGQGTQVTVSS,high polyreactivity
20,QVQLVESGGCLVQAGGSLRLSCAASGGTFRGYAMGWYRQAPGKETELVAASSTSGSRTSYADSVKGRFTISRDNAKNTVYLQMNSLKPEDNAVYYCNADPIHGVYSRFRLGGYWGQGTQVTVSS,high polyreactivity
21,QVQLVESGGCLVQAGGSLRLSCAASGITFKYYVMGWYRQAPGKEREFVAAISWGGGSPYYADSVKGRCTISRDNAKNTVYVQMNSLKPEDTAVYYCAATSAYGRYRYYYWGQGTQVTVSS,high polyreactivity
22,QVQLVESGGCLVQAGGSLRLSCAASGLIFYRYAMGWYRQAPGKERELVAAISWSGGTTYYADSVKGRFTISRDNAKNSVYLQMNSLKPEDTAVYYCAADAVYYHFDYWGQGTQVTVSS,high polyreactivity

row,Sequence,polyreactivity (PSR sort gate)
1,QVQLVESGGCLVQAGGSLRLSCAASGLTFGSNAMGWYRQAPGKERELVAAISSTGSTYYADSVKGRFTISRDNAKNTVYLQMNSLKPEDTAVYYCAAYDYWGQGTQVTVSS,low polyreactivity
2,QVQLVESGGCLVQAGGSLRLSCAASGNTFWVNSMGWYRQAPGKERELVAGITSSGDSTSYADSVKGRFTISRDNAKNTVYLQMNSLKPEDTAVYYCAADVGGFWYTEYYWGQGTQVTVSS,high polyreactivity
3,QVQLVESGGCLVQAGGSLRLSCAASGRIFPGYAMGWYRQAPGKESEFVAAITASGGTTYYADSVKGRFTISRDNAKNTVYLQMNCLKPEDTAVYYCAKYRYTVAGYNYWGQGTQVTVSS,high polyreactivity
4,QVQLVESGGCLVQAGGSLRLSCAASGRIFQAYAMGWYRQAPGKERELVAAINRSGNTNYADSVKGRFTISRDNAKNTVYLQMNSLKPEDTAVYYCAADAVSFSYFGYQRMDYWGQGTQVTVSS,low polyreactivity
5,QVQLVESGGCLVQAGGSLRLSCAASGRIFQSYAMGWYRQAPGKESELVAAISQSGGSTYYADSVQGRFTISRDNAKNTVYVQMNSLKPEDTAVYYCAARSRWYKRYDYWGQGTQVTVSS,low polyreactivity
6,QVQLVESGGCLVQAGGSLRLSCAASGRIFRDKAMGWYRQAPGKEREFVARITISTGTTYYADSVKGRFTISRDNAKNTGYLQKNSLKPADTAVYYCAALYTDSYLTSPVSYRYDYWGQGTQVSVSS,low polyreactivity
7,QVQLVESGGCLVQAGGSLRLSCAASGRIFYRYAMGWSRQAPGKVRELVATISWSGGSTYYAHSVKGRFTISRDNAKYTVYLQLNSLKPEDTAVYYCNAAYGNVSRVYYLIEHDYWGQGTQVTVSS,high polyreactivity
8,QVQLVESGGCLVQAGGSLRLSCAASGRILEYYTMGWYRQAPGKERELVAGITSGGTTNYADSVKGRFTISRDNAKNTVYLQMNSLKPEDTAVYYCALKQSYYFGSYFYGHEYYYWGQGTQVTVSS,low polyreactivity
9,QVQLVESGGCLVQAGGSLRLSCAASGRILLHNAMGWYRQAPGKERELVAAITNGGSTYYADSVKGRFTISRDNAKNTVYLQMNSLKPEDTAVYYCAARTRLAQYSRGRYRYDYWGQGTQVTVSS,high polyreactivity
10,QVQLVESGGCLVQAGGSLRLSCAASGRISVFYAMGWYRQAPGKERELVAAITRSGTTKYADSVKGRFTISRDNAKNTVYLQMNSLKPEDTAVYYCAVRRYRARFGYWGKGTQVTVSS,high polyreactivity
11,QVQLVESGGCLVQAGGSLRLSCAASGRIYIGYAMGWYRQAPGKERELVAAITTGGRTSYAVSVKGRFTISRDNAKNTVYLQMNSLKPVDTAVYYCAKRKSYNFPTRRPYYRRYYYWGQGTQVTVSS,high polyreactivity
12,QVQLVESGGCLVQAGGSLRLSCAASGRTFNYKAMGWYRQAPGKERELVAAINYSGDSTYYADSVKGRFTISRDNAKNTVYLQMNSLQPEDTAVYYCNADDYWYYYRYGYWGQGTQVTVSS,low polyreactivity
13,QVQLVESGGCLVQAGGSLRLSCAASGRTFSIYAMGWYRQAPGKEWELVASINGSGGSTYYADSVKGRFTISRDIAMNTVYLQMNSLKPEDTAVYYCAARASPRFNYWGQGSQVTVSS,high polyreactivity
14,QVQLVESGGCLVQAGGSLRLSCAASGRTFSLYAMGWYRQEPGQERELVASITDSTGGSTYYADSVKGRFTLSRDNAKNTVYLQMNSLKPEDTAVYYCAAQDYQYSDYQWWFGYWGLGTQVTVSS,low polyreactivity
15,QVQLVESGGCLVQAGGSLRLSCAASGRTFYGYAMGWYRQAPGKERELVATITSGGSTNYADSVKGRFTISRDNAKNTVYLQMNSLKPEDTAVYYCAATTRLYGRHRRYNYWGQGTQVTVSS,high polyreactivity
16,QVQLVESGGCLVQAGGSLRLSCAASGRTFYSYAMGWYRQAPGKERELVAAISYTGASTFYADSVKGRFTISRDNAKNTVYLQMNSLKPEDTAVYYCAARKVRFAVDYWGQGTQVTVSS,high polyreactivity
17,QVQLVESGGCLVQAGGSLRLSCAASGRTIRVYAMGWYRQAPGKARELVASITRAGGTYADSVKGRFTISRDIAKNPDYLQMNSLKPEDTAVYFCNARWQRSTGGRQRYDYWGQGTQVTVSS,high polyreactivity
18,QVQLVESGGCLVQAGGSLRLSCAASGRTYQNNAMGWYRQAPGKERELVAAISRSGASTYYADSVKGRFTISRDNAKNTVYLQMNSLKPEDTAVYYCAARYPRTAYDYWGQGTQVTVSS,low polyreactivity
19,QVQLVESGGCLVQAGGSLRLSCAASGSIFDYNAMGWYRQAPGKEREFVAAISSSAGSTYYADSVKGRFTISRDNAKNTVYLQMNSLKPEDTAVYDCAADWYDFSFPYYEYEYWGQGTQVTVSS,low polyreactivity
20,QVQLVESGGCLVQAGGSLRLSCAASGSIFDYNAMGWYRQAPGKEREFVAAISSSAGSTYYADSVKGRFTISRDNAKNTVYLQMNSLKPEDTAVYYCAADWYDFSFPYYEYEFWGQGTQVTVSS,low polyreactivity
21,QVQLVESGGCLVQAGGSLRLSCAASGSIFEYYAMAWSRQAPGKERELVAAINSGDITKYADSVKGRFTISRDNAKNTVYLQMNSLKPEDTAVYYCAKRLSSREYYWGQGSQVTVSS,high polyreactivity
